From paper PMC7187366
Like-named read-outs stand apart in the source and are kept apart here.

T1: OsPIL15 (Oryza sativa, UniProt Q0JNI9 1-637)
T1 sequence: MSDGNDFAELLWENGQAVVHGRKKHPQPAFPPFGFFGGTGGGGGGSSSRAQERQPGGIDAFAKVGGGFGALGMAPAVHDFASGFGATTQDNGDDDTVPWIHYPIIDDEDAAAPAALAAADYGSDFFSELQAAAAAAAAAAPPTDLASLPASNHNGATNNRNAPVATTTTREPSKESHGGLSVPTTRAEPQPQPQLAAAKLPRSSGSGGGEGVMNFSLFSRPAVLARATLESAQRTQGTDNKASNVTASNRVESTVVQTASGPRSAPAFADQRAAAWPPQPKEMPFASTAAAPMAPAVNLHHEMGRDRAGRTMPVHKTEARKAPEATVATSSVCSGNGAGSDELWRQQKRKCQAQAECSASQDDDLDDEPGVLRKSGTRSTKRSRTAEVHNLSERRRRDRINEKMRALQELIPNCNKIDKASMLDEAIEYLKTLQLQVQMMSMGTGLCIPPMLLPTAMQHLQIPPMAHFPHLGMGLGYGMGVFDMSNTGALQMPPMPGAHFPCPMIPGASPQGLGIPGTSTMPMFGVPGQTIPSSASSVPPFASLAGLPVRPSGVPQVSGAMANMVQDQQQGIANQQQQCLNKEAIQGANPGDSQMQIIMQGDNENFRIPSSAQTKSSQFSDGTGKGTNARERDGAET

B1: Probe Am (mutant G-boxes) (dsDNA)
DNA 1: TGATCTGACTTTAAACCGGTGACTTTCGCC
DNA 2: GGCGAAAGTCACCGGTTTAAAGTCAGATCA
B2: Probe Bm (mutant G-box) (dsDNA)
DNA 1: ATTTTCCTGACTTCACTATGACTTGTT
DNA 2: AACAAGTCATAGTGAAGTCAGGAAAAT

Columns and labels:
OsPIL15 [1] = molecular target: T1, OsPIL15; assay: competition
OsPIL15 [2] = molecular target: T1, OsPIL15; assay: competition; remark: listed apart in the source

Row | Binder | binding result (OsPIL15 [1]) | binding result (OsPIL15 [2])
1 | B1 | no binding | 
2 | B2 |  | no binding
